Measured values taken from US20050222029A1 (MYRIAD GENETICS, published 2005).

Key:
Experiment in all cases: yeast two-hybrid
[1] = target: T1, GTPase-activiating protein 1 1392-1657 (human, UniProt P46940 1392-1657)
T1 construct: prey (Gal4 AD-HA fusion); also called IQGAP1; IQGAP
T1 sequence (looked up): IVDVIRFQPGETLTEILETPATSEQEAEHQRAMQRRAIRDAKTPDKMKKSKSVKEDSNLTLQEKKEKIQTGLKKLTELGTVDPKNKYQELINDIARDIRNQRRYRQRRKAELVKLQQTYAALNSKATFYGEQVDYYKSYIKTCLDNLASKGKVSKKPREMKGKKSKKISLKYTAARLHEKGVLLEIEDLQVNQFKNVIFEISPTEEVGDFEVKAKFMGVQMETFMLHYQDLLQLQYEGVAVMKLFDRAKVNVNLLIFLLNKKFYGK

[2] = target: T2, Serum deprivation response 75-258 (human, UniProt O95810 75-258)
T2 construct: prey (Gal4 AD-HA fusion)
T2 sequence (looked up): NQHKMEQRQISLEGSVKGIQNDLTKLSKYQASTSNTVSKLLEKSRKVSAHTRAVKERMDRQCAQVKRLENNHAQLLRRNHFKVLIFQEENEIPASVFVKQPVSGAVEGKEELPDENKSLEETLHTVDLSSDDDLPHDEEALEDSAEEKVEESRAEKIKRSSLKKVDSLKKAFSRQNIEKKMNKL

[3] = target: T3, Mitotic spindle coiled-coil related protein 701-1082 (human, UniProt Q96R06 701-1082)
T3 construct: prey (Gal4 AD-HA fusion)
T3 sequence (looked up): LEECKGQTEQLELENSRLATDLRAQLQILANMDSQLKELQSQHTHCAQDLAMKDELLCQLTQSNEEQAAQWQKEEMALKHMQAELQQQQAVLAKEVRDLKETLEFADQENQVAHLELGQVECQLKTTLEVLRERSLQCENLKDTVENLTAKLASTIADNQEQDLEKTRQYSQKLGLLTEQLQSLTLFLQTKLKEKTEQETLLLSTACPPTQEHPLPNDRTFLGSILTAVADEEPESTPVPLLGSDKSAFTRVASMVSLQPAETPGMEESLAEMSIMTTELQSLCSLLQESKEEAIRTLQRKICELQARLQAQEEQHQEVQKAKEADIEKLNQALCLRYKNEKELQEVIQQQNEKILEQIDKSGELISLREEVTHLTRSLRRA

Hook2 protein 201-559 = target: T4, Hook2 protein 201-559 (human, UniProt Q96ED9 201-559)
T4 construct: prey (Gal4 AD-HA fusion)
T4 sequence (looked up): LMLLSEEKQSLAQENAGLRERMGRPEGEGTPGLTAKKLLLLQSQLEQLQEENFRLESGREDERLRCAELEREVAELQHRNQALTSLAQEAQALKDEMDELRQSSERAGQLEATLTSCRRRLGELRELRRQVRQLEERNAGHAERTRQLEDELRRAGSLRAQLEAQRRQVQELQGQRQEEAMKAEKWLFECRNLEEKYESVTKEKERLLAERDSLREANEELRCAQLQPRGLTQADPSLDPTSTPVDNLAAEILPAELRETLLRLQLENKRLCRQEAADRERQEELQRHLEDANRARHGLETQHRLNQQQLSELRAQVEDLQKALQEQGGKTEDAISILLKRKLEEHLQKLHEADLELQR

Intersection 1 387-611 = target: T5, Intersection 1 387-611 (human, UniProt Q15811 387-611)
T5 construct: prey (Gal4 AD-HA fusion); also called Intersectin 1; ITSN1
T5 sequence (looked up): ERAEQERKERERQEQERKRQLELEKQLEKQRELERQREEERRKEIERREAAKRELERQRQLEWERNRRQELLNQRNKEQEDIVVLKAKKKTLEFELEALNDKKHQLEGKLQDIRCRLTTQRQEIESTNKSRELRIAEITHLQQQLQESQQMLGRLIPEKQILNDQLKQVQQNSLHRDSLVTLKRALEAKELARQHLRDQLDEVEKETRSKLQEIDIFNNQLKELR

Intersection 1 210-633 = target: T6, Intersection 1 210-633 (human, UniProt Q15811 210-633)
T6 construct: prey (Gal4 AD-HA fusion); also called Intersectin 1; ITSN1
T6 sequence (looked up): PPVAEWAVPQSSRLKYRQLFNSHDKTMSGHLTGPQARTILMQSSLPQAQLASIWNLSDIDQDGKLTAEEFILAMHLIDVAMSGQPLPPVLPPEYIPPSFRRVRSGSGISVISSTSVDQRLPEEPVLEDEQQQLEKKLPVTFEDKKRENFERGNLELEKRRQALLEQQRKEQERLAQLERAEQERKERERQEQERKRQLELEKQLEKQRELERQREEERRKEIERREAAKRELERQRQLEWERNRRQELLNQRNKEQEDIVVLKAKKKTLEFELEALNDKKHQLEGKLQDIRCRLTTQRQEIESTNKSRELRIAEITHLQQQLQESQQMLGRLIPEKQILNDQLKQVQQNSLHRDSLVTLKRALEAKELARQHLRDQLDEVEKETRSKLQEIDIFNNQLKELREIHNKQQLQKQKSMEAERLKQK

Pallid 21-172 = target: T7, Pallid 21-172 (human, UniProt Q9UL45 21-172)
T7 construct: prey (Gal4 AD-HA fusion)
T7 sequence (looked up): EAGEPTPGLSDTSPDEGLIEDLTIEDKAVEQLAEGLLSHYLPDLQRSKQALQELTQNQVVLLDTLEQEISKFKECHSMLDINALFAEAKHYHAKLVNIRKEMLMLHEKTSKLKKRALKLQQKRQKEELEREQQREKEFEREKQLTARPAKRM

Keratin 5 282-448 = target: T8, Keratin 5 282-448 (human, UniProt P13647 282-448)
T8 construct: prey (Gal4 AD-HA fusion)
T8 sequence (looked up): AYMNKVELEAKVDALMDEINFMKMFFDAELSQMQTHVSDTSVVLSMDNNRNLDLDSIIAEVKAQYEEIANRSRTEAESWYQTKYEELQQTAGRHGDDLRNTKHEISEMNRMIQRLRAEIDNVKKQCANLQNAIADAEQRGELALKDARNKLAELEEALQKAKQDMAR

[4] = target: T9, GTPase-activiating protein 1 1299-1555 (human, UniProt P46940 1299-1555)
T9 construct: prey (Gal4 AD-HA fusion); also called IQGAP1; IQGAP
T9 sequence (looked up): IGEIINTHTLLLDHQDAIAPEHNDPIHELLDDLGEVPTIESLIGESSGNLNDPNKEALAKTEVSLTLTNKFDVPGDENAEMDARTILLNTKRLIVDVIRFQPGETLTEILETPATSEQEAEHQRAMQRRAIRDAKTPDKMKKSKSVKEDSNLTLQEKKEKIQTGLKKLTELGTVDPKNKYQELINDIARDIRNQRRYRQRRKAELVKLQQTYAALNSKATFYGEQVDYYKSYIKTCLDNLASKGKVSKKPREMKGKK

binding result [1]: binds
binding result [2]: binds
binding result [3]: binds
binding result (Hook2 protein 201-559): binds
binding result (Intersection 1 387-611): binds
binding result (Intersection 1 210-633): binds
binding result (Pallid 21-172): binds
binding result (Keratin 5 282-448): binds
binding result [4]: binds
B1: Tumor Suppressor (TSG101) 240-391 (other, human, UniProt Q99816 240-390, looked up)
chain: WRMKEEMDRAQAELNALKRTEEDLKKGHQKLEEMVTRLDQEVAEVDKNIELLKKKDEELSSALEKMENQSENNDIDEVIIPTAPLYKQILNLYAEENAIEDTIFYLGEALRRGVIDLDVFLKHVRLLSRKQFQLRALMQKARKTAGLSDLY
notes: range 240-391; bait (Gal4 DBD fusion); also called TSG101 240-390
